T1: HsOrc6 full length (Homo sapiens, UniProt Q9Y5N6 1-252)
T1 sequence: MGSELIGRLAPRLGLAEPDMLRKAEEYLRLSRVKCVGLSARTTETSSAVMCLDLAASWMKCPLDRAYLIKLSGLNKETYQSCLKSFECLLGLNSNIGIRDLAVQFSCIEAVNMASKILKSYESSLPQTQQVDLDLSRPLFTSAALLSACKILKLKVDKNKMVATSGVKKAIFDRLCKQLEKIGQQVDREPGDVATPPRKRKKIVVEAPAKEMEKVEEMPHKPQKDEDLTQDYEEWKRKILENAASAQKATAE

T2: HsOrc6-DBD (Homo sapiens, UniProt Q9Y5N6 95-207)
T2 sequence: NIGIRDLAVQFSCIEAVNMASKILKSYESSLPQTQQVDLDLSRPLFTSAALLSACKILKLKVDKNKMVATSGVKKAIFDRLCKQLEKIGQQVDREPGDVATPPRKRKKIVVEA

T3: HsOrc6-M (Homo sapiens, UniProt Q9Y5N6 95-187)
T3 sequence: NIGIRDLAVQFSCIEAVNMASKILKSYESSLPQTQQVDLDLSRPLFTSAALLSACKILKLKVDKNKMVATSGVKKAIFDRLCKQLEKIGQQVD


Assays:
HsOrc6 full length = biological target: T1, HsOrc6 full length; test: NMR titration (1H,15N-HSQC); range over residues; NMR: 50 mM sodium phosphate pH 6.5, 100 mM NaCl, 2 mM DTT, 298 K; ITC: 50 mM sodium phosphate pH 6.5, 100 mM NaCl, 25 C; EMSA: 25 mM Tris pH 8.0, 60 mM KCl, 5 mM MgCl2, 0.4 mM EDTA, 0.4 mM EGTA, 0.1% NP-40, 10% glycerol, 0.12 mg/ml BSA, room temperature 30 min; settings: protein: recombinant; tags: none (N-terminal His-tag cleaved with 3C); blunt
HsOrc6-DBD = biological target: T2, HsOrc6-DBD; test: NMR titration (1H,15N-HSQC); range over residues: K169 47.1±1.4, A170 57.7±1.1, R200 9.92±2.91, I203 11.3±1.5; NMR: 50 mM sodium phosphate pH 6.5, 100 mM NaCl, 2 mM DTT, 298 K; ITC: 50 mM sodium phosphate pH 6.5, 100 mM NaCl, 25 C; EMSA: 25 mM Tris pH 8.0, 60 mM KCl, 5 mM MgCl2, 0.4 mM EDTA, 0.4 mM EGTA, 0.1% NP-40, 10% glycerol, 0.12 mg/ml BSA, room temperature 30 min; settings: protein: recombinant; tags: none (N-terminal His-tag cleaved); blunt
HsOrc6-M = biological target: T3, HsOrc6-M; test: NMR (2D NOESY of DNA); smaller shifts than with DBD; NMR: 50 mM sodium phosphate pH 6.5, 100 mM NaCl, 2 mM DTT, 298 K; ITC: 50 mM sodium phosphate pH 6.5, 100 mM NaCl, 25 C; EMSA: 25 mM Tris pH 8.0, 60 mM KCl, 5 mM MgCl2, 0.4 mM EDTA, 0.4 mM EGTA, 0.1% NP-40, 10% glycerol, 0.12 mg/ml BSA, room temperature 30 min; settings: protein: recombinant; tags: none (N-terminal His-tag cleaved); blunt

Binder	Kd (HsOrc6 full length)	Kd (HsOrc6-DBD)	binding result (HsOrc6-M)
17-bp AT-rich DNA (dsDNA) DNA 1: GGCCCTTTTTTTTCTAG DNA 2: CTAGAAAAAAAAGGGCC	44.5 µM	23.9 µM	–
10-bp AT-rich DNA (dsDNA) DNA 1: TTTAAAAAGT DNA 2: ACTTTTTAAA	–	–	binds
